*1 amine or outer side, *2 acyl side, *3 side chain or, on linkers, in order; H or OH if unused. Primed or numbered codes have the meaning given here. [ ]: non-standard residue; d: D form. aMeNle = (S)-2-amino-2-methylhexanoic acid (alpha-methyl-norleucine), CCCC[C@](C)(N[*:1])C(=O)[*:2]; Phe(4-(trans-4-COOH-cHex)) = N[C@@H](Cc1ccc([C@H]2CC[C@H](C(=O)O)CC2)cc1)C(=O)O; DapAc = (S)-3-acetamido-2-aminopropanoic acid, CC(=O)NC[C@H](N[*:1])C(=O)[*:2]; Phe(4-(4-Ac-piperazinyl)) = CC(=O)N1CCN(c2ccc(C[C@H](N)C(=O)O)cc2)CC1; Pro(trans-4-NH2) = O=C([C@@H]1C[C@@H](N[*:3])CN1[*:1])[*:2]; Bip(4'-COOH) = N[C@@H](Cc1ccc(-c2ccc(C(=O)O)cc2)cc1)C(=O)O; 1Nal(3S-Me) = C[C@@H](c1cccc2ccccc12)[C@H](N)C(=O)O; Ala(indolin-1-yl) = N[C@@H](CN1CCc2ccccc21)C(=O)O; Phe(4-COOH) = N[C@@H](Cc1ccc(C(=O)O)cc1)C(=O)O; h3Pal(5-CN) = N#Cc1cncc(CC[C@H](N)C(=O)O)c1; hTyr = N[C@@H](CCc1ccc(O)cc1)C(=O)O; hCha = N[C@@H](CCC1CCCCC1)C(=O)O; 4Pal = N[C@@H](Cc1ccncc1)C(=O)O; Cha = N[C@@H](CC1CCCCC1)C(=O)O; dαMeDab′ = not defined here; dDab = NCC[C@@H](N)C(=O)O; Nle = CCCC[C@H](N)C(=O)O; dNMeA = CN[C@H](C)C(=O)O; Dab = NCC[C@H](N)C(=O)O

The target of the experiment is Recombinant human IL-1β (BioLegend 579404) (human, UniProt P01584 117-269). The experiment is described as follows: cell-based or functional assay.

B1: SEQ ID NO: 198 (Example No. 198) (peptide)
peptide: cyclo([Phe(4-(4-Ac-piperazinyl))]W[Phe(4-COOH)]G[Pro(trans-4-NH2)][1Nal(3S-Me)]D[dNMeA]G[Bip(4'-COOH)][Ala(indolin-1-yl)]G[dDab][hTyr])
SMILES: CC(=O)N1CCN(c2ccc(C[C@@H]3NC(=O)[C@H](CCc4ccc(O)cc4)NC(=O)[C@@H](CCN)NC(=O)CNC(=O)[C@H](CN4CCc5ccccc54)NC(=O)[C@H](Cc4ccc(-c5ccc(C(=O)O)cc5)cc4)NC(=O)CNC(=O)[C@@H](C)N(C)C(=O)[C@H](CC(=O)O)NC(=O)[C@H]([C@@H](C)c4cccc5ccccc45)NC(=O)[C@@H]4C[C@@H](N)CN4C(=O)CNC(=O)[C@H](Cc4ccc(C(=O)O)cc4)NC(=O)[C@H](Cc4c[nH]c5ccccc45)NC3=O)cc2)CC1
As to B1, the “MRC5 IC50” value turned out to be 0.021 nM.

B2: SEQ ID NO: 202 (Example No. 202) (peptide)
peptide: cyclo([Phe(4-(4-Ac-piperazinyl))]W[Phe(4-COOH)]G[Pro(trans-4-NH2)][1Nal(3S-Me)]D[dNMeA]G[Bip(4'-COOH)][Cha]G[dDab][hTyr])
SMILES: CC(=O)N1CCN(c2ccc(C[C@@H]3NC(=O)[C@H](CCc4ccc(O)cc4)NC(=O)[C@@H](CCN)NC(=O)CNC(=O)[C@H](CC4CCCCC4)NC(=O)[C@H](Cc4ccc(-c5ccc(C(=O)O)cc5)cc4)NC(=O)CNC(=O)[C@@H](C)N(C)C(=O)[C@H](CC(=O)O)NC(=O)[C@H]([C@@H](C)c4cccc5ccccc45)NC(=O)[C@@H]4C[C@@H](N)CN4C(=O)CNC(=O)[C@H](Cc4ccc(C(=O)O)cc4)NC(=O)[C@H](Cc4c[nH]c5ccccc45)NC3=O)cc2)CC1
Regarding B2, the “MRC5 IC50” value came out at 0.029 nM.

B3: SEQ ID NO: 197 (Example No. 197) (peptide)
peptide: cyclo([Phe(4-(trans-4-COOH-cHex))]W[Phe(4-COOH)]G[Pro(trans-4-NH2)][1Nal(3S-Me)]D[dNMeA]G[Bip(4'-COOH)][4Pal]G[dDab][Nle])
SMILES: CCCC[C@@H]1NC(=O)[C@@H](CCN)NC(=O)CNC(=O)[C@H](Cc2ccncc2)NC(=O)[C@H](Cc2ccc(-c3ccc(C(=O)O)cc3)cc2)NC(=O)CNC(=O)[C@@H](C)N(C)C(=O)[C@H](CC(=O)O)NC(=O)[C@H]([C@@H](C)c2cccc3ccccc23)NC(=O)[C@@H]2C[C@@H](N)CN2C(=O)CNC(=O)[C@H](Cc2ccc(C(=O)O)cc2)NC(=O)[C@H](Cc2c[nH]c3ccccc23)NC(=O)[C@H](Cc2ccc([C@H]3CC[C@H](C(=O)O)CC3)cc2)NC1=O
For B3, the “MRC5 IC50” value amounted to 0.024 nM.

B4: SEQ ID NO: 201 (Example No. 201) (peptide)
peptide: cyclo([Phe(4-(4-Ac-piperazinyl))]W[Phe(4-COOH)]G[Pro(trans-4-NH2)][1Nal(3S-Me)]D[dNMeA]G[Bip(4'-COOH)][4Pal]G[dDab][hCha])
SMILES: CC(=O)N1CCN(c2ccc(C[C@@H]3NC(=O)[C@H](CCC4CCCCC4)NC(=O)[C@@H](CCN)NC(=O)CNC(=O)[C@H](Cc4ccncc4)NC(=O)[C@H](Cc4ccc(-c5ccc(C(=O)O)cc5)cc4)NC(=O)CNC(=O)[C@@H](C)N(C)C(=O)[C@H](CC(=O)O)NC(=O)[C@H]([C@@H](C)c4cccc5ccccc45)NC(=O)[C@@H]4C[C@@H](N)CN4C(=O)CNC(=O)[C@H](Cc4ccc(C(=O)O)cc4)NC(=O)[C@H](Cc4c[nH]c5ccccc45)NC3=O)cc2)CC1
Consider B4, for which the “MRC5 IC50” value was 0.03 nM.

B5: SEQ ID NO: 204 (Example No. 204) (peptide)
peptide: cyclo([Phe(4-(4-Ac-piperazinyl))]W[Phe(4-COOH)]G[Pro(trans-4-NH2)][1Nal(3S-Me)]D[dNMeA]G[Bip(4'-COOH)][DapAc]K[dA][h3Pal(5-CN)])
SMILES: CC(=O)NC[C@@H]1NC(=O)[C@H](Cc2ccc(-c3ccc(C(=O)O)cc3)cc2)NC(=O)CNC(=O)[C@@H](C)N(C)C(=O)[C@H](CC(=O)O)NC(=O)[C@H]([C@@H](C)c2cccc3ccccc23)NC(=O)[C@@H]2C[C@@H](N)CN2C(=O)CNC(=O)[C@H](Cc2ccc(C(=O)O)cc2)NC(=O)[C@H](Cc2c[nH]c3ccccc23)NC(=O)[C@H](Cc2ccc(N3CCN(C(C)=O)CC3)cc2)NC(=O)[C@H](CCc2cncc(C#N)c2)NC(=O)[C@@H](C)NC(=O)[C@H](CCCCN)NC1=O
For the molecule B5, the “MRC5 IC50” value worked out at 0.009 nM.

B6: SEQ ID NO: 203 (Example No. 203) (peptide)
peptide: cyclo([Phe(4-(4-Ac-piperazinyl))]W[Phe(4-COOH)]G[Pro(trans-4-NH2)][1Nal(3S-Me)]D[dNMeA]G[Bip(4'-COOH)][Dab]L[dA][hCha])
SMILES: CC(=O)N1CCN(c2ccc(C[C@@H]3NC(=O)[C@H](CCC4CCCCC4)NC(=O)[C@@H](C)NC(=O)[C@H](CC(C)C)NC(=O)[C@H](CCN)NC(=O)[C@H](Cc4ccc(-c5ccc(C(=O)O)cc5)cc4)NC(=O)CNC(=O)[C@@H](C)N(C)C(=O)[C@H](CC(=O)O)NC(=O)[C@H]([C@@H](C)c4cccc5ccccc45)NC(=O)[C@@H]4C[C@@H](N)CN4C(=O)CNC(=O)[C@H](Cc4ccc(C(=O)O)cc4)NC(=O)[C@H](Cc4c[nH]c5ccccc45)NC3=O)cc2)CC1
On to B6, for which the “MRC5 IC50” value came to 0.012 nM.

B7: SEQ ID NO: 196 (Example No. 196) (peptide)
peptide: cyclo([Phe(4-(trans-4-COOH-cHex))]W[Phe(4-COOH)]G[Pro(trans-4-NH2)][1Nal(3S-Me)]D[dNMeA]G[Bip(4'-COOH)][4Pal]G[dDab][hCha])
SMILES: C[C@@H]1C(=O)NCC(=O)N[C@@H](Cc2ccc(-c3ccc(C(=O)O)cc3)cc2)C(=O)N[C@@H](Cc2ccncc2)C(=O)NCC(=O)N[C@H](CCN)C(=O)N[C@@H](CCC2CCCCC2)C(=O)N[C@@H](Cc2ccc([C@H]3CC[C@H](C(=O)O)CC3)cc2)C(=O)N[C@@H](Cc2c[nH]c3ccccc23)C(=O)N[C@@H](Cc2ccc(C(=O)O)cc2)C(=O)NCC(=O)N2C[C@H](N)C[C@H]2C(=O)N[C@@H]([C@@H](C)c2cccc3ccccc23)C(=O)N[C@@H](CC(=O)O)C(=O)N1C
On to B7, for which the “MRC5 IC50” value stood at 0.03 nM.

B8: SEQ ID NO: 199 (Example No. 199) (peptide)
peptide: cyclo([Phe(4-(4-Ac-piperazinyl))]W[Phe(4-COOH)]G[Pro(trans-4-NH2)][1Nal(3S-Me)]D[dNMeA]G[Bip(4'-COOH)][4Pal]G[dαMeDab′][hCha])
With B8, the “MRC5 IC50” value is 0.024 nM.

B9: SEQ ID NO: 200 (Example No. 200) (peptide)
peptide: cyclo([Phe(4-(4-Ac-piperazinyl))]W[Phe(4-COOH)]G[Pro(trans-4-NH2)][1Nal(3S-Me)]D[dNMeA]G[Bip(4'-COOH)][4Pal]G[dDab][aMeNle])
SMILES: CCCC[C@]1(C)NC(=O)[C@@H](CCN)NC(=O)CNC(=O)[C@H](Cc2ccncc2)NC(=O)[C@H](Cc2ccc(-c3ccc(C(=O)O)cc3)cc2)NC(=O)CNC(=O)[C@@H](C)N(C)C(=O)[C@H](CC(=O)O)NC(=O)[C@H]([C@@H](C)c2cccc3ccccc23)NC(=O)[C@@H]2C[C@@H](N)CN2C(=O)CNC(=O)[C@H](Cc2ccc(C(=O)O)cc2)NC(=O)[C@H](Cc2c[nH]c3ccccc23)NC(=O)[C@H](Cc2ccc(N3CCN(C(C)=O)CC3)cc2)NC1=O
In the case of B9, the “MRC5 IC50” value amounted to 0.034 nM.
